Assay results as given in the supplement of paper PMC10567573.

B1: DVL3 (parent)
chain: FPELGYSYGGGSASSQHSEGSRSS
B2: PRKX (parent)
chain: KLLVVDRTRRLGNMKNGANDVKHH

Variants of: B1
Experiment: protein stability index of a GFP-peptide fusion (GPS, HEK-293T) (PSI 1-6); higher = more stable
Settings: c terminus: a fixed tail appended
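Note: lentivirally expressed fusions sorted by FACS into six bins by GFP to DsRed ratio, PSI derived from sequencing read proportions per bin multiplied by bin number.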

Variant	protein stability index
A13T	3.31
A13I	2.45
A13S	2.9
A13W	1.91
A13L	3.18
A13Q	2.8
A13P	2.94
A13H	2.73
A13E	3.47
A13D	2.77
A13V	3.12
A13G	3.04
A13N	3.03
A13K	2.63
A13Y	2.49
A13M	2.98
A13C	2.22
A13R	3.12
A13F	2.31
G5P	2.58
G5R	3.58
G5W	1.61
G5K	3.98
G5A	2.91

Variant	protein stability index
G5D	4.59
G5E	4.81
G5T	3.96
G5N	3.96
G5S	3.52
G5C	3.52
G5Y	2.5
G5I	2.93
G5V	3.64
G5M	3.31
G5H	3.08
G5Q	4.39
G5F	2.33
G5L	3.18
G9C	2.3
G9I	2.22
G9D	4.05
G9M	2.49
G9H	2.93
G9V	2.4
G9K	3.18
G9Q	2.8
G9R	2.91
G9W	1.58

Variant	protein stability index
G9P	3.37
G9E	4.39
G9F	2.43
G9Y	2.11
G9A	2.39
G9T	3.32
G9N	3.77
G9S	3.27
G9L	1.6
G10L	2.62
G10Y	2.45
G10D	3.67
G10M	2.15
G10C	2.2
G10A	3.06
G10N	3.55
G10E	3.95
G10I	2.81
G10R	2.74
G10P	3.3
G10S	3.45
G10V	2.83
G10K	3.61
G10Q	2.84

Variant	protein stability index
G10H	3.12
G10F	2.22
G10T	2.78
G10W	1.89
S12C	3.03
S12M	2.9
S12G	3.14
S12P	2.92
S12T	3.29
S12L	2.81
S12E	3.56
S12N	3.17
S12K	2.82
S12H	2.9
S12D	3.2
S12F	2.65
S12R	2.91
S12V	3
S12Q	3.12
S12I	2.64
S12Y	2.41
S12A	2.58
S12W	2.22
G11A	3.29

Variant	protein stability index
G11K	2.7
G11I	2.22
G11W	2.11
G11D	3.35
G11S	3.03
G11R	3.5
G11P	2.9
G11L	2.57
G11V	2.81
G11H	3.29
G11E	3.22
G11M	2.73
G11C	2.7
G11Q	3.16
G11T	2.52
G11N	2.98
G11Y	2.38
G11F	2.28
F1S	4.99
F1G	4.62
F1L	4.22
F1W	4.25
F1C	4.68
F1P	5.34

Variant	protein stability index
F1Y	4
F1T	4.95
F1M	4.38
F1I	5.21
F1Q	5.03
F1K	4.89
F1H	4.96
F1V	4.03
F1N	5.32
F1D	5.2
F1R	4.86
F1E	5.18
F1A	5.09
S15R	2.92
S15W	1.75
S15H	3.2
S15E	3.65
S15F	2.71
S15D	2.99
S15P	3.56
S15K	2.64
S15A	3.59
S15G	2.8
S15V	3.2

Variant	protein stability index
S15L	3.16
S15T	2.65
S15C	2.19
S15N	3.38
S15M	2.74
S15Y	2.73
S15I	2.9
S15Q	3.18
Y8A	3.72
Y8E	4.71
Y8H	3.43
Y8Q	4.06
Y8M	3.6
Y8F	2.59
Y8C	2.74
Y8N	4.09
Y8L	3.09
Y8G	3.8
Y8S	4.09
Y8K	2.95
Y8D	4.75
Y8R	3.2
Y8T	3.7
Y8V	3.45

Variant	protein stability index
Y8I	2.58
Y8P	3.97
Y8W	2.82
S14E	3.41
S14Y	2.37
S14G	3.44
S14W	2.47
S14F	2.16
S14L	2.73
S14M	2.59
S14P	3.24
S14V	2.96
S14H	3.17
S14R	3.25
S14C	2.71
S14I	2.9
S14D	3.61
S14Q	2.99
S14N	2.87
S14T	2.77
S14A	3.45
S14K	3.51
P2A	2.87
P2M	3.96

Variant	protein stability index
P2G	3.12
P2E	4.66
P2D	5.09
P2L	2.86
P2Y	3.1
P2F	3.37
P2N	4.26
P2T	2.38
P2I	2.07
P2C	1.99
P2K	4.49
P2W	3.2
P2S	3.34
P2R	4.09
P2Q	3.02
P2V	4.01
P2H	2.1
E3S	1.59
E3V	3.75
E3F	2.93
E3A	3.43
E3H	2.58
E3G	2.12
E3M	3.5

Variant	protein stability index
E3Q	3.16
E3R	3.41
E3L	3.87
E3K	2.62
E3D	2.67
E3C	2.76
E3I	3.59
E3T	2.19
E3P	2.96
E3W	2.99
E3N	2.63
E3Y	2.61
Y6A	3.87
Y6P	3.76
Y6V	3.75
Y6E	4.76
Y6N	4.58
Y6S	3.98
Y6C	3.4
Y6F	2.32
Y6M	3.71
Y6Q	4.3
Y6H	3.77
Y6K	3.37

Variant	protein stability index
Y6G	3.81
Y6L	3.53
Y6D	5.2
Y6T	3.7
Y6W	1.66
Y6I	3.77
Y6R	3.5
Q16F	2.03
Q16P	3.31
Q16A	2.86
Q16W	2.27
Q16E	3.22
Q16G	2.88
Q16C	2.81
Q16R	2.41
Q16V	2.7
Q16N	3.28
Q16T	3.48
Q16L	2.83
Q16H	3.12
Q16Y	2.69
Q16D	3.58
Q16S	3.09
Q16M	3.07

Variant	protein stability index
Q16K	2.95
Q16I	3.05
L4I	3.25
L4F	3.16
L4Q	3.35
L4S	2.62
L4K	2.98
L4T	3.77
L4P	3.24
L4D	4.52
L4C	2.82
L4H	3.33
L4Y	2.57
L4E	4.31
L4M	2.09
L4V	3.36
L4W	1.76
L4N	2.35
L4R	2.84
L4G	1.8
L4A	3.47
S7Y	2.19
S7L	2.26
S7P	2.7

Variant	protein stability index
S7A	2.12
S7K	3.21
S7D	4.89
S7T	2.36
S7W	1.74
S7G	2.5
S7E	3.68
S7Q	3.22
S7M	2.65
S7N	3.55
S7I	2.04
S7F	2.72
S7H	2.4
S7C	1.84
S7R	2.18
S7V	2.42
H17C	3.1
H17F	2.77
H17G	3.07
H17A	3.12
H17E	3.29
H17D	3.08

Variants of: B2
Experiment: as above
Settings: c terminus: a fixed tail appended

Variant	protein stability index
H23Y	2.35
H23V	2.96
H23S	2.73
H23W	3.4
H23T	3.18
H24Y	2.46
H24L	2.11
H24C	3
H24D	3.4
H24V	2.65
H24K	3
H24N	2.81
H24T	3.25
H24E	3.96
H24Q	3.01
H24W	2.76
H24R	3.1
H24P	2.91
H24M	2.63
H24F	2.36
H24I	2.23
H24S	3.48
H24A	3.61
H24G	2.75
